Experimental data reported in patent US8026218.
Bridge positions count the residues as written; N and C are the ends. Square brackets hold non-standard residues; d marks the D form. Primed or numbered codes have the meaning given here. Ends that are not written are not given here. * marks the point of attachment. O‑Bzl(CF3)2 = C-terminal bis(trifluoromethyl)benzyl ester; Glc = O-glucosyl on Ser side chain (Ser(OGlu)/Ser(OGlc)); NH(3,5-(CF3)2-benzyl) = FC(F)(F)c1cc(CN*)cc(C(F)(F)F)c1; OBzl(3,5-(CF3)2) = FC(F)(F)c1cc(CO*)cc(C(F)(F)F)c1; Glc″ = glucosyl on the serine side-chain oxygen; O‑Bzl(CF3)2(3) = C-terminal O-Bzl(CF3)2 ester; NH‑Bn(CF3)2 = C-terminal Bn(CF3)2 amide; Dmt = Cc1cc(O)cc(C)c1C[C@H](N)C(=O)O; Met(O) = CS(=O)CC[C@H](N)C(=O)O; dPen = CC(C)(S)[C@@H](N)C(=O)O; Nle = CCCC[C@H](N)C(=O)O; Aib = CC(C)(N)C(=O)O

B1: TyrDAlaGlyPheSer(OGlu)ProLeuTrpNHBn(CF3)2 (TY042) (peptide)
peptide: Y[dA]GFSPLW-{NH(3,5-(CF3)2-benzyl)}
modifications: not fully specified (residue 5); printed as TyrDAlaGlyPheSer(OGlu)ProLeuTrpNHBn(CF3)2
B2: H-Tyr-D-Ala-Gly-Phe-Nle-Pro-Leu-Trp-O-3,5-Bzl(CF3)2 (peptide)
peptide: YAGFXPLW
modifications: here or on the partner: D-Ala at 2; Nle (norleucine, written X) at 5; C-terminal 3,5-bis(trifluoromethyl)benzyl ester

Biological target: rat µ opioid receptor (rat) (UniProt P33535)
Test: cell-based or functional assay

rat µ opioid receptor (rat), sequence (P33535 whole entry): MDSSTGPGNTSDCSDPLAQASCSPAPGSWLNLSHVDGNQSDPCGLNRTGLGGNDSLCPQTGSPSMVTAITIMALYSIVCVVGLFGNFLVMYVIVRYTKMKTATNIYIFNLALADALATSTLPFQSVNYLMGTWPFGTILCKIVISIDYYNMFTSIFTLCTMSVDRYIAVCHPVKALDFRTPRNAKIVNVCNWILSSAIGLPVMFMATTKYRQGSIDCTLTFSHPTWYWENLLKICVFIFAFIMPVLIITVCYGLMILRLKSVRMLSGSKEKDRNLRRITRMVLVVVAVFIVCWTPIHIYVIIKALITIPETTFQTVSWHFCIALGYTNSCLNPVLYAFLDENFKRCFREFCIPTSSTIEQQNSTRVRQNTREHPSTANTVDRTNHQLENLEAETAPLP

Binder | GTP binding rMOR EC50 [nM] | GTP binding rMOR Emax [%]
Y[dPen]GF[Nle]P[dPen]W-{NH‑Bn(CF3)2} (disulfide 2-7) [Tyr[DPenGlyPheNleProDPen]TrpNHBn(CF3)2 (TY048)] | 135 | 29

Biological target: δ opioid receptor of the mouse isolated vas deferens (mouse) (UniProt P32300)
Test: cell-based or functional assay

δ opioid receptor of the mouse isolated vas deferens (mouse), sequence (P32300 whole entry, stated change not applied): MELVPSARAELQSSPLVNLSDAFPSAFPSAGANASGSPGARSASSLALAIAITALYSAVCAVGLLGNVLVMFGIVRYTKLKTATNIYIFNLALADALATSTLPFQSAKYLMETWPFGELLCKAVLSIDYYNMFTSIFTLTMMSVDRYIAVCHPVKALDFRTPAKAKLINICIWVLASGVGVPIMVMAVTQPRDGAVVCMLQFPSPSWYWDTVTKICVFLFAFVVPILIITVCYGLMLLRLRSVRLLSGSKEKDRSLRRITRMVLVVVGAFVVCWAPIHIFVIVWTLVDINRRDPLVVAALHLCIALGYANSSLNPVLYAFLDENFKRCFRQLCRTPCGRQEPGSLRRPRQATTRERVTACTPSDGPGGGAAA

Binder | MVD δ-agonist IC50 [nM]
Y[dA]GFLW-{O‑Bzl(CF3)2} [Tyr-DAla-Gly-Phe-Leu-Trp-O-Bzl(CF3)2 (NP37)] | 25.7
Y[dA]GF[Aib]W-{O‑Bzl(CF3)2(3)} [Tyr-DAla-Gly-Phe-Aib-Trp-O-Bzl(CF3)2 (NP41)] | 36.2

Biological target: δ opioid receptor of the mouse isolated vas deferens (mouse), P32300
Test: cell-based or functional assay

δ opioid receptor of the mouse isolated vas deferens (mouse), P32300, sequence (P32300 whole entry, stated change not applied): as above

Binder | MVD opioid(delta) agonist IC50 [nM] | MVD (δ) opioid agonist IC50 [nM]
Y[dC]GFCPLW-{NH(3,5-(CF3)2-benzyl)} (disulfide 2-5) [Tyr[DCysGlyPheCys]ProLeuTrpNHBn(CF3)2 (TY039)] | 73.1 | –
Y[dA]GF[Nle]PS(Glc)W-{NH‑Bn(CF3)2} [TyrDAlaGlyPheNleProSer(OGlu)TrpNHBn(CF3)2 (TY041)] | 12.7 | –
B1 | 109 | –
Y[dA]GFMPLW-OH [TyrDAlaGlyPheMetProLeuTrpOH (TY043)] | 8.18 | –
H-Y[dA]GF[Met(O)]PLW-{OBzl(3,5-(CF3)2)} (also: TFA salt) [H-Tyr-D-Ala-Gly-Phe-Met(O)-Pro-Leu-Trp-O-3,5-Bzl(CF3)2] | – | 33
Y[dA]GF[Nle]S(Glc″)LW-{NH‑Bn(CF3)2} [TyrDAlaGlyPheNleSer(OGlu)LeuTrpNHBn(CF3)2 (TY044)] | 18 | –
YAGFXPLW (here or on the partner: D-Ala at 2; Nle at 5 (X); C-terminal NH-Bn(CF3)2 amide) [TyrDAlaGlyPheNleProLeuTrpNHBn(CF3)2 (TY045)] | 13.6 | –
B2 | – | 16.8
Y[dA]GF[Nle]PLS(Glc)W-{NH‑Bn(CF3)2} [TyrDAlaGlyPheNleProLeuSer(OGlu)TrpNHBn(CF3)2 (TY055)] | 17.4 | –
[Dmt][dA]GF[Nle]PS(Glc)W-{NH‑Bn(CF3)2} [DmtDAlaGlyPheNleProSer(OGlu)TrpNHBn(CF3)2 (TY056)] | 3.62 | –

Biological target: human NK1 receptor (human) (UniProt P25103)
Test: competition vs [3H]Substance P, hNK1 CHO cell membranes

human NK1 receptor (human), sequence (P25103 whole entry): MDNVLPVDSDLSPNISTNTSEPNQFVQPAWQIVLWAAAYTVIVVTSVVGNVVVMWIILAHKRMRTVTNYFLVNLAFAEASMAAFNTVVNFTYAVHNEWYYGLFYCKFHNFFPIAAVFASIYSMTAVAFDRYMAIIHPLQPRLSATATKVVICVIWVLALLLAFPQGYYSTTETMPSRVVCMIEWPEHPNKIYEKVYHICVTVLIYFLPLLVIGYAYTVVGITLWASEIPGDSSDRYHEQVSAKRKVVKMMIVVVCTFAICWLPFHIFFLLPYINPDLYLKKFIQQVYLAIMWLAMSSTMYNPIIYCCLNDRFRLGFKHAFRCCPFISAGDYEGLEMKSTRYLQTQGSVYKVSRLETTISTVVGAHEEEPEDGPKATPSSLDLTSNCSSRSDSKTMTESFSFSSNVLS

Binder | Ki [nM]
Y[dPen]GF[Nle]P[dPen]W-{NH(3,5-(CF3)2-benzyl)} (disulfide 2-7) [Tyr[DPenGlyPheNleProDPen]TrpNHBn(CF3)2] | 1.9

Biological target: rat NK1 receptor (rat) (UniProt P14600)
Test: competition vs [3H]Substance P, rNK1 CHO cell membranes

rat NK1 receptor (rat), sequence (P14600 whole entry): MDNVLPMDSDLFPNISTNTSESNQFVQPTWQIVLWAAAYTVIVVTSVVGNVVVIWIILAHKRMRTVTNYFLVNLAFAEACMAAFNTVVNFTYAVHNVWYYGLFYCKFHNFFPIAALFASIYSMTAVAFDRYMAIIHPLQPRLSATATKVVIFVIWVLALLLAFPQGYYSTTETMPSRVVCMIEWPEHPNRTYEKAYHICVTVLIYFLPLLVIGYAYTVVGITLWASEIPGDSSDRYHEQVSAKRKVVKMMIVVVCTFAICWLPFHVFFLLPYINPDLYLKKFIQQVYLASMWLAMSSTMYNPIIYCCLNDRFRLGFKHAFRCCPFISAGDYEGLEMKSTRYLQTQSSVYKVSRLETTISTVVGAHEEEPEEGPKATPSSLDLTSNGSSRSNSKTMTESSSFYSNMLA

Binder | Ki [nM]
Y[dPen]GF[Nle]P[dPen]W-{NH(3,5-(CF3)2-benzyl)} (disulfide 2-7) [Tyr[DPenGlyPheNleProDPen]TrpNHBn(CF3)2] | 26

Biological target: rat µ opioid receptor (rat) (UniProt P33535)
Test: radioligand competition vs [3H]DAMGO, membranes of rMOR cells

Binder | Ki [nM]
Y[dPen]GF[Nle]P[dPen]W-{NH‑Bn(CF3)2} (disulfide 2-7) [Tyr[DPenGlyPheNleProDPen]TrpNHBn(CF3)2 (TY048)] | 998

Biological target: human NK1 receptor (human) (UniProt P25103)
Test: radioligand competition vs [3H]substance P, membranes of hNK1 CHO cells

Binder | Ki [nM]
Y[dPen]GF[Nle]P[dPen]W-{NH‑Bn(CF3)2} (disulfide 2-7) [Tyr[DPenGlyPheNleProDPen]TrpNHBn(CF3)2 (TY048)] | 1.9

Biological target: rat NK1 receptor (rat) (UniProt P14600)
Test: radioligand competition vs [3H]substance P, membranes of rNK1 CHO cells

Binder | Ki [nM]
Y[dPen]GF[Nle]P[dPen]W-{NH‑Bn(CF3)2} (disulfide 2-7) [Tyr[DPenGlyPheNleProDPen]TrpNHBn(CF3)2 (TY048)] | 26
